Data published in patent publication US20160137746A1, “METHODS FOR TREATING HIGH CARDIOVASCULAR RISK PATIENTS WITH HYPERCHOLESTEROLEMIA” (Sanofi Biotechnology, priority 2014, published 2016).

Tested on: high cardiovascular risk patients with hypercholesterolemia
Assay: ODYSSEY LONG TERM: long-term safety and tolerability
[1] = alirocumab patients with two consecutive LDL-C <25 mg/dL (n = 562), pre-specified analysis
[2] = all alirocumab patients (n = 1550), pre-specified analysis

Procedure: Safety parameters (adverse events [including adjudicated cardiovascular events], laboratory data, vital signs, and ECG) were assessed throughout the study.
Safety endpoints assessed in this trial were: cardiovascular events; allergic events; local tolerability at injection site; other adverse events (including hemolytic anemia); laboratory tests: urinalysis, hematology (red blood cell count, red blood cell distribution width (RDW), reticulocyte count, hemoglobin, hematocrit, platelets, white blood cell count with differential blood count), standard chemistry (sodium, potassium, chloride, bicarbonate, calcium, phosphorous, urea nitrogen, creatinine, uric acid, total protein, albumin, LDH, γ Glutamyl Transferase [γGT]), Vitamin E (alpha tocopherol) and other Fat Soluble Vitamins, cortisol (and reflexive ACTH levels, as needed, followed by ACTH stimulation test, as needed), Gonadal Hormone Assessments, Hepatitis C antibody, liver panel (ALT, AST, ALP, and total bilirubin), and CPK; vital signs including heart rate and blood pressure; and 12-lead ECG.
The safety population included all randomized patients who received at least one dose or part of a dose of the double-blind IMP.
Safety analyses were descriptive, performed on the safety population according to treatment actually received. The safety analysis focused on the TEAE period defined as the time from the first dose of double-blind injection up to 70 days after the last double-blind injection. TEAE which developed, worsened or became serious or PCSA occurring after the patient's first injection in the open-label extension study (LTS13643) were not considered in the TEAE period. TEAE period was truncated at the common study cut-off date.

## Alirocumab: human anti-PCSK9 antibody; HCVR SEQ ID NO:1, LCVR SEQ ID NO:6; CDRs SEQ ID NOs 2/3/4/7/8/10
[1]
  TEAEs by System-Organ-Class: Investigations (lab parameters), % of patients: 3.7% (21)
  TEAEs by System-Organ-Class: Metabolism and nutrition disorders, % of patients: 8.0% (45)
  TEAEs by System-Organ-Class: Musculoskeletal and connective tissue disorders, % of patients: 22.6% (127)
  TEAEs by System-Organ-Class: Neoplasms, benign, malignant (incl cysts/polyps), % of patients: 3.0% (17)
  TEAEs by System-Organ-Class: Nervous system disorders, % of patients: 11.2% (63)
  TEAEs by System-Organ-Class: Psychiatric disorders, % of patients: 4.3% (24)
  TEAEs by System-Organ-Class: Renal and urinary disorders, % of patients: 3.6% (20)
  TEAEs by System-Organ-Class: Reproductive system and breast disorders, % of patients: 2.0% (11)
  TEAEs by System-Organ-Class: Respiratory, thoracic, and mediastinal disorders, % of patients: 7.7% (43)
  TEAEs by System-Organ-Class: Skin and subcutaneous tissue disorders, % of patients: 6.9% (39)
  TEAEs by System-Organ-Class: Vascular disorders, % of patients: 5.0% (28)
  TEAEs leading to discontinuation, % of patients: 3.6% (20)
  TEAEs, % of patients: 71.9% (404)
  Treatment-emergent SAEs, % of patients: 14.6% (82)
[2]
  AE of special interest: All adjudicated cardiovascular events, % of patients: 4.0% (62)
  AE of special interest: General allergic reaction events, % of patients: 9.0% (140)
  AE of special interest: Haemolytic anaemia, % (n) of patients: 0
  AE of special interest: Neurocognitive disorders, % of patients: 1.2% (18)
  AE of special interest: Neurological events, % of patients: 4.2% (65)
  AE of special interest: Ophthalmological events, % of patients: 2.5% (38)
  AE of special interest: Treament-emergent local injection site reactions, % of patients: 5.8% (90)
  Neurocognitive AE: Amnesia, % of patients: 0.3% (5)
  Neurocognitive AE: Any neurocognitive disorder, % of patients: 1.2% (18)
  Neurocognitive AE: Confusion postoperative, % of patients: <0.1% (1)
  Neurocognitive AE: Confusional state, % of patients: 0.3% (4)
  Neurocognitive AE: Dementia, % of patients: <0.1% (1)
  Neurocognitive AE: Disorientation, % of patients: <0.1% (1)
  Neurocognitive AE: Disturbance in attention, % of patients: <0.1% (1)
  Neurocognitive AE: Frontotemporal dementia, % of patients: <0.1% (1)
  Neurocognitive AE: Memory impairment, % of patients: 0.3% (5)
  Neurocognitive AE: Transient global amnesia, % of patients: <0.1% (1)
  TEAE ALT increase, % of patients: 1.1%
  TEAE AST increase, % of patients: 0.2%
  TEAE Angina pectoris, % of patients: 2.1% (32)
  TEAE Arthralgia, % of patients: 4.5% (70)
  TEAE Atrial fibrillation, % of patients: 1.4% (22)
  TEAE Back pain, % of patients: 4.7% (73)
  TEAE Bronchitis, % of patients: 5.2% (80)
  TEAE CPK increase, % of patients: 0.5%
  TEAE Cellulitis, % of patients: 1.4% (22)
  TEAE Confusion, % of patients: 2.3% (35)
  TEAE Constipation, % of patients: 1.9% (30)
  TEAE Cough, % of patients: 3.2% (49)
  TEAE Depression, % of patients: 1.8% (28)
  TEAE Diabetes in patients with history of diabetes (Company MedDRA Query "diabetes"), number as printed: 48
  TEAE Diabetes in patients with no history of diabetes (Company MedDRA Query "diabetes"), number as printed: 19
  TEAE Diarrhea, % of patients: 5.3% (82)
  TEAE Dizziness, % of patients: 2.5% (38)
  TEAE Fall, % of patients: 2.8% (43)
  TEAE Fatigue, % of patients: 3.0% (47)
  TEAE Gastoenteritis, % of patients: 2.4% (37)
  TEAE Headache, % of patients: 4.8% (74)
  TEAE Hypertension, % of patients: 3.5% (54)
  TEAE Influenza, % of patients: 5.4% (84)
  TEAE Injection site reaction, % of patients: 5.7% (89)
  TEAE Muscle spasms, % of patients: 3.7% (58)
  TEAE Musculoskeletal pain, % of patients: 2.3% (36)
  TEAE Myalgia, % of patients: 4.9% (76)
  TEAE Nasopharyngitis, % of patients: 12.6% (196)
  TEAE Nausea, % of patients: 2.4% (37)
  TEAE Non-cardiac chest pain, % of patients: 1.8% (28)
  TEAE Osteoarthritis, % of patients: 2.3% (35)
  TEAE Pain in extremity, % of patients: 3.0% (46)
  TEAE Rhinitis, % of patients: 1.4% (22)
  TEAE Sinusitis, % of patients: 2.6% (40)
  TEAE Type-2 diabetes mellitus, % of patients: 1.7% (27)
  TEAE leading to death, % of patients: 0.5% (7)
  TEAEs by System-Organ-Class: Blood and lymphatic system disorders, % of patients: 2.4% (37)
  TEAEs by System-Organ-Class: Cardiac disorders, % of patients: 9.1% (141)
  TEAEs by System-Organ-Class: Ear and labyrinth disorders, % of patients: 2.0% (31)
  TEAEs by System-Organ-Class: Eye disorders, % of patients: 6.5% (100)
  TEAEs by System-Organ-Class: Gastrointestinal disorders, % of patients: 18.6% (288)
  TEAEs by System-Organ-Class: General disorders and administration site conditions, % of patients: 15.4% (238)
  TEAEs by System-Organ-Class: Injury, poisoning, and procedural complications, % of patients: 13.4% (207)
  TEAEs by System-Organ-Class: Investigations (lab parameters), % of patients: 6.1% (95)
  TEAEs by System-Organ-Class: Metabolism and nutrition disorders, % of patients: 9.1% (141)
  TEAEs by System-Organ-Class: Musculoskeletal and connective tissue disorders, % of patients: 27.2% (422)
  TEAEs by System-Organ-Class: Neoplasms, benign, malignant (incl cysts/polyps), % of patients: 2.5% (38)
  TEAEs by System-Organ-Class: Nervous system disorders, % of patients: 17.0% (264)
  TEAEs by System-Organ-Class: Psychiatric disorders, % of patients: 5.9% (91)
  TEAEs by System-Organ-Class: Renal and urinary disorders, % of patients: 4.6% (72)
  TEAEs by System-Organ-Class: Reproductive system and breast disorders, % of patients: 2.5% (38)
  TEAEs by System-Organ-Class: Respiratory, thoracic, and mediastinal disorders, % of patients: 11.0% (171)
  TEAEs by System-Organ-Class: Skin and subcutaneous tissue disorders, % of patients: 9.1% (141)
  TEAEs by System-Organ-Class: Vascular disorders, % of patients: 7.9% (122)
  TEAEs leading to discontinuation, % of patients: 6.2% (96)
  TEAEs, % of patients: 78.6% (1218)
  Treatment-emergent SAEs, % of patients: 16.5% (255)
Final analysis
  Injection-site reactions: 5.9%
  Myalgia: 5.4%
  Neurocognitive events: 1.2%
  Ophthalmological events: 2.9%
  Patients with two consecutive calculated LDL cholesterol levels of less than 25 mg/dL (575 patients): 38%
  Treatment-emergent adverse events: 81%
  Treatment-emergent adverse events leading to study-drug discontinuation: 7.2%
pre-specified analysis
  Alanine aminotransferase > 3 × ULN, % of patients: 1.6%
  Alanine aminotransferase > 3 × ULN, n/N of patients: 25/1532
  Aspartate aminiotransferase >3 × ULN, % of patients: 1.2%
  Aspartate aminiotransferase >3 × ULN, n/N of patients: 19/1532
  Creatine kinase > 3 × ULN, % of patients: 3.3%
  Creatine kinase > 3 × ULN, n/N of patients: 50/1507
  Deaths reported during the study: 11 (0.7%) n (%)
  Diarrhea (TEAE preferred term): 5.3%
  Headache (TEAE preferred term): 4.8%
  Hemolytic anaemia: No case
  Influenza (TEAE preferred term): 5.4%
  Injection site reaction (TEAE preferred term): 5.7%
  Nasopharyngitis (TEAE preferred term): 12.6%
  Neurocognitive disorders: 18 (1.2%) n (%)
  Patients with LDL-C <25 mg/dL in two or more consecutive periods, share of population treated with alirocumab (562 out of 1550): 36.3%
  Patients with impaired glucose control at baseline defined as diabetic in the TEAE period: 36 (6.3%) n (%)
  Patients with two consecutive calculated LDL-C values <25 mg/dL (<0.65 mmo/L): 562 (37.4%) n (%)
  SOC gastrointestinal disorders: 18.6%
  SOC general disorders and administration site conditions: 15.4%
  SOC injury, poisoning and procedural complications: 13.4%
  SOC musculoskeletal and connective tissue disorders: 27.2%
  SOC nervous system disorders: 17.0%
  SOC respiratory, thoracic and mediastinal disorders: 11.0%
  Safety in patients with two consecutive calculated LDL-C <25 mg/dL: No particular safety concern
  TEAE leading to death: 7 (0.5%) n (%)
  Time to first injection site reaction: 57 days
  Treatment-emergent local injection site reaction: 90 (5.8%) n (%)
